Test results from paper PMC5404824, “Engineering Nucleotide Specificity of Succinyl-CoA Synthetase in Blastocystis: The Emerging Role of Gatekeeper Residues” (Biochemistry, 2016).

Substrate: Nc1ncnc2c1ncn2[C@@H]1O[C@H](COP(=O)(O)OP(=O)(O)OP(=O)(O)O)[C@@H](O)[C@H]1O
Experiment: purified protein
Settings: 129 μM CoA, 10 mM succinate, 50 mM KCl, 10 mM MgCl2, 50 mM Tris-HCl pH 7.4, 30 nM enzyme

B1: Blastocystis SCS (succinyl-CoA synthetase, SCSα + SCSβ) (Blastocystis sp. ATCC 50177/Nand II) (protein)
chain: LNIHEWQSKQLIQKYGGRAQSGEVAFSPERSRDIAKKLWNQFPGCKFVVKAQVLAGGRGKGHWEHGMQGGVKLAKTPEEVYEIANEMIGHKLITKQTGAKGINCNKVMVCGAVKILKEFYLSILLDRAMGCPVIIATSQGGMGIEEVAQKCPECLFKVPISVKNGPTNEQLVKLAKDLGLEGDLVQDCVDNVKALYQVFDKCDSTMVEINPLGVIETPTDEKVICCLDAKIAFDKDAAFRQKEIFALRDKSREDPRDVRASLADLNYVGLDGDIGCMVNGAGLAMATMDTINYFGGSAANFLDVGGNAKKEQITEALRILNSDKHVKSILINIFGGIMRCDVVAQGIMDAVREMKLDLPLVVRLEGTNVAKGKEILKSSGLNIIPANDLGDAAKKAVASLKH
- Km: 145 ± 47 µM
- kcat: 0.0139 s⁻¹
- kcat/Km: 96 M⁻¹ s⁻¹
